This data set is described as follows: yeast display, Sf9 membrane polyspecificity reagent, FACS + sequencing; frameworks hold sequencing errors. Summed up: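 Genes from sorted yeast were amplified by colony PCR, read by MiSeq 2 × 250 sequencing and filtered on CDR length. These cells carried a synthetic nanobody library in Saccharomyces cerevisiae BJ5465 and were sorted by FACS into low and high (top ~1%) gates on anti-HA and streptavidin fluorescence. Polyreactivity is labelled according to the gate of origin.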
As to “QVQLVESGGGLVQAGGSLRLSCAASGRTFSGNTMGWYRQAPGKERELVAAISSGGSRTYYADSVKGRFTISRDNAKNTVYLLMNSLKPEDTAVYYCATVSTYYHYRRYDYWGQGTQVTVSS”, the “polyreactivity (PSR sort gate)” value was “high polyreactivity”. For “QVQLVESGGGLVQAVGSLRLSCAASGFTFRGYDMRSYRQAPGKQRELVAGITWGDDSTYYADSVKRRFTISRDKAKNTGYLQMNILKPEDTAVYYCAAEYVFHDVLWWIYGYWRQGTQVTVSS”, the “polyreactivity (PSR sort gate)” value is “high polyreactivity”. For the sequence “QVQLEESGGGLVQAGGSLRLSCAASGSTFPFYAMGWYRQAPGKERELVAAISRGGSTNYADSVKGRFTISRDNAKNTVYLQMNSLKPEDTAVYYCNADVFWWYPYDYWGQGTQVTVSS”, the “polyreactivity (PSR sort gate)” value was “high polyreactivity”. As for “QVQLVESGGGLVQAGGSLRLSCAASGRIFIYNAMGWYRQATGKERELVAAISYRGGSTYYADSVKGRFTISRDNAKNTVYLQMNSLKPEDTAVYYCNAKIVQYGAHNYWGQGTQVTVSS”, the “polyreactivity (PSR sort gate)” value was “high polyreactivity”. Turning to “QVQLQESGGGLVQACGSLRLSCAASGTITVLYKMGWFRQAPGKEREFVASINYGTSTYYADSVKGRFTVSRDSAKNTVYLQMNSLKPEDTAVYYCAAAYRWQDVYRYWGQGTQVTVSS”, the “polyreactivity (PSR sort gate)” value is “low polyreactivity”. As to “QVQLVESGGGLVQAGGSLRLSCAASGRTFWVNTMGWYRQAPGKERELVAGITRSGTRTYYADSVKGRFTISRDNAKNTVYLQMNSLKPEDTAVYYCATGPWRYRYDYWGQGTQVTVSS”, the “polyreactivity (PSR sort gate)” value is recorded as “low polyreactivity”. On to “HVQLVESGGGLVQAGGSLRLSCAASGSISAVNTMGWYRQAPGKERELVATISYSTASTYYADSVKGRFTISRDNAKNTVYLQMNSLKPEDTAVYYCAADAYFDTWYDYWGQGTQVTVSS”, for which the “polyreactivity (PSR sort gate)” value is reported as “low polyreactivity”.

Consider “QVQLVESGGGLVQAGGSLRLICAASGFIFYYYAMGWYRQAPGKERQVVAAITWSGGITYYADSVKGRFTISRDNAKNTVYLQMISMKPEDTAVYYCATGYEYYGYSGSRRDYWGQGTQVTVSS”, for which the “polyreactivity (PSR sort gate)” value is “low polyreactivity”.

Consider “QVQLVESGGGLVQAGGSLRLSCAASGFTFGNNGMGWYRQAPGKERELVATISWSGGSTYADSVKGRFTISRDNAKNTVDLQMNSLKPEDTAVYYCAARYFVYYLEVDYWGQGTQVTVSS”, for which the “polyreactivity (PSR sort gate)” value is listed as “low polyreactivity”.

For the sequence “QVQLVESGGGLVQAGGSLRLSCAASGITIPVYMGWYRQPPGKERELVASISTIGGTTYYADSVKGRFTITRDNAKNTVYLQMNRLKPEDSAVYYCAADHPWSWYDYWGQGTQVTVSW”, the “polyreactivity (PSR sort gate)” value is listed as “low polyreactivity”. For “QVQLVESGGGLVQAGGSLRLSCAASGSTFGVNTMGWYRQAPGKERELVAAITKSGGSTYYADSVKGRFTISRDNAKNTVYLQMNSLKPEDTAVYYCNTDYGRYLYYRYGYWGQGTQVTVSS”, the “polyreactivity (PSR sort gate)” value was “low polyreactivity”. Under “QVQLVESGGGLVQAGGSLRLSCAASGSIFQRTAMGWYRQAPGNERELVASINSGGSTNYADSVKGRFTISRDNAKNTVYLQMNSLKPEDTAVYYCAAVRPWWRNKPQWPRYDYWGLGTQVTVSS” stands “low polyreactivity”.

Take “QVQLVESGGGLVQAGGSLRLSCAASGLTSVRYAMGWYRQAPGKERELVARISTGGSTYYADSVKGRFTISRDNAKNTVYLQMNSLKPEDTAVYYCNKGYARRYASGYDYWGQGTQVTVSS”: the “polyreactivity (PSR sort gate)” value is given as “high polyreactivity”.

“QVQLVESGGGLVQAGGSLRLSCAASGSIFYYYAMGWYRPAPGKEWELVAAISSTVSTNYADSVKGRFTISRDNAKNTVYLQMNSLKPEDTAVYYCAAAQRVNHVWYDYWGQGTQVTVSS”: the “polyreactivity (PSR sort gate)” value is given as “low polyreactivity”.

Regarding “QVQLVDSGGGLVQAGGSLRLSCAASGIIFWRYAMGWYRQAPGKERELVASISSSGGRTYYADSVKGRFTISRDNAKNTVYLQMNSLKPEDTAVYYCAARGPYGYDLLYYWGQGTQVTVSS”, the “polyreactivity (PSR sort gate)” value was “high polyreactivity”.

For the sequence “QDQLVESGGGLVQAGGSLRLSCAASGRTFDRNAMGWYRQAPGKERELVARITIDGSTNYADSVKGRFTISRDNAKNTVYLQMNSLKPEDTAVYYCATDQLSLSWYFRPYDYGYWGQGTQVTVSS”, the “polyreactivity (PSR sort gate)” value is given as “high polyreactivity”. On to “QVQLVESGGGLVQAGGSLRLSCAASGNIFGTYAMGWSRQAPRKERELVATISNDDRTNYADSVKGRFTISRDNAKNTVYFQMNSLKPADTAVYYCAVEYPSIAYRKSSKTFDYWGQGTQVTVSS”, for which the “polyreactivity (PSR sort gate)” value is on record as “low polyreactivity”. Under “QVQLVESGGGLVQAGGSLRLSCAASGIFLGYAMGWYRQAPGKERELVAGISSGGGTYYADSVKGRFTISRDNAKNTVYLQMNSLKPEDTAVYYCNAASQYTFDSSFDYWGQGTQVTVSS” stands “low polyreactivity”; under “QDNLVESGGGLVQAGGSLRLICAASGSTNRSNAMGWYRQAPGKERELVAANSRTGGRTYYADSVKGRFTISRDNAKNTVYLQMKCLNQEDTAVYYCARADKRLEYSENYYWGQGTQVTVSS”, “high polyreactivity”; under “QVQLVESGGGLDQAGGSLRLSCAASGFIFVYNVMGWYRQAPGKEREFVATITWRGVTTYYADSVKGRFTISRDNAKNTVYLQMNSLKPEDTAVYYCAVTVAYSYPRRSHYYWGQGTQVTVSS”, “low polyreactivity”.

Take “QVQLVESGGGLVQAGGSLRLSCAASPNIFHTYGMGWYRQAPWKERELVAAITSDGGTYYADSVKGRFTISRDNAKNTVYLQMNSLNPEDSAVYYCAAYTYYYAIHAYWGQGSQVTVSS”: the “polyreactivity (PSR sort gate)” value is “low polyreactivity”. Under “QVQLVESGAGLVQAGGSLLLSSAPSASTFVSYAMGWYRQAPGKERELVAAISSGGGSTYYADSVKGRFTISRDNAKNTVYLQMNILKPEDTAVYYCAARGYAYRAQYGYWGQGTQVTVSS” stands “high polyreactivity”. As for “QVQLVESGGGLVQAGGSLRLSCAASGRIITINAMGWYRQAPGKERELVAAITGSAASTYYADSVKGRFTISRDNAKNTVYLQMNILKPEDTAVYYCAVDRRPYSGHGYDYWGQGTQVTVSS”, the “polyreactivity (PSR sort gate)” value was “high polyreactivity”. “QVQLVESGGGLVQAGGSLRLSCAASGSIFSVYVMGWYRQAPGKERELVAAISWSDSDTYYADSVKGRFTISRDNAKNTVYLQMNSLKPEDTAVYYCNVVNPVLYSSYEFDYWGQGTQVTVSS”: the “polyreactivity (PSR sort gate)” value is reported as “high polyreactivity”. With “QVLLVESAVGLVQAVGSLRLSCAASGSICYTNGMGWYRQAPGNERELVASITRSGGSTYYADSVKGRFTISRDNAKNSVYLQMNRLKPEDTAVYYCATSWGYRGLWGLRFDYWGQGTQVSVSS”, the “polyreactivity (PSR sort gate)” value was “low polyreactivity”.

On to “QVQLVESGGGLVQAGGSLRLSCAASGSTFGNYAMGWYRQATGKERELVAASRWSGTRTFYADSVKGRFTISRDNAKNTVYLQMNSLKPEDTAVYYCNAVYSQPGYKGGYSWGQGTQVTVSS”, for which the “polyreactivity (PSR sort gate)” value is “high polyreactivity”. Turning to “QVHLVESGGGLVQAGGSLRLSFAASGFTFGQNAMGWYRQAPGKEREFVATITASGSTYYADSVKGRFTISRDNAKNTVYLQMYSLKPEDTAVYYCATRYAGEYYWDYDYWGQGTQVTVSS”, the “polyreactivity (PSR sort gate)” value was “high polyreactivity”. As for “QVQLVESGGGLVQAGGSLRLSSAASGITFYDYAMGWSRPSPGKERELVAAINSSGVRTYYADSVKGRFTISRDNAKNTVYLQMKSLNPEYTAVYYCAAKLVYGGRYGYWGQGTQVTVSS”, the entry is “high polyreactivity”. Under “QVQLVESGGGLVQAGGSLRLSCAASGRIFGIYAMGWYRQAPGKERELVATITDSDDSTYYADSVKGRFTISRDNAKNTVNLQMNSLKPEDTAVYYCATAFSYGGGAYDYWGQGTKVTVSS” stands “low polyreactivity”.

As for “QFQLVESGGGLVQAGASLRLSCAASGRIFEIYAMGWYRQAPGKDRELVAASSWRGVSTYYADSVKGRFTITRDNAKKTVYLQMNSLKPEDTAVYYCNKDVDYFWYVEYDYWGHGTQVTVSS”, the “polyreactivity (PSR sort gate)” value is recorded as “low polyreactivity”. Under “QVQLVESVGGLVQAGGSLRLSCAASGLIFLVNAMGWYRQAPGKERELVAAIDRDGGITYADSVKGRFTISRDNAKNTVYLQLNSLKPEDTAVYYCAADPSSYGRFTYDYWGQGTQVTVSS” stands “low polyreactivity”. Take “QVQLVESGGGLVQAGGSLRLSCAASGNTISYYAMGWYRQAPGKERELVAAISANGGSTYYADSVKGRFTISRDNAKNTVYLQMNSLKPEDTAVYYCNRRFLSRNQNEYDYWGQGTQVTVSS”: the “polyreactivity (PSR sort gate)” value is recorded as “high polyreactivity”.

“QVQLVESRGGLVQAGGSLRLSCAASGRIFASYTMGWYRQAHGKERELVAAISWRGDGTYYADSVKGRFTISRDNAKNTVYLQMNSLKPEDTAVYYCAADYVYYYHEYDYWGQGTQVTVSS”: the “polyreactivity (PSR sort gate)” value was “low polyreactivity”.

“QVQLVESGAGLVQAGGSLRLSCDASGRTVNIYAMGWYRQAPGKERELVADISYSDGSTDYADSVKGRFTISRDNAKNTVYLQMNSLKPEDTAVYYCAAYYYYYYGFGQRYYSWGQGTQVTVSS”: the “polyreactivity (PSR sort gate)” value is “low polyreactivity”. Consider “QVQLVESGGGLVQAGGSLRLSCAASGRIFTGYTMGWYRQAPGKERELVAGITRGGSTYYADSVKGRFTISRDNAKNTVYLQMNSLKPEDTAVYYCAADYPRFWYHSWYVPAYYYWGQGTQVTVSS”, for which the “polyreactivity (PSR sort gate)” value is reported as “high polyreactivity”. Under “QVQLEESGGGLVQAGGSLRLSCAASGFTFGSYAMGWYRQAPGKEREFVAAISLGGARTYYADSVKGRFTMSRDNAKNTVYLQMHSLKPEDTAVYYGNARGIGRSTKWSSRDYWGQGTQVTVSS” stands “high polyreactivity”; under “QVQLVESGGGLVQAGGSLRLSCAASGRIFGRYAMGWYRQAPGKERELVAAISRRGGTTYYADSVKGRFTISRDNAKNTVYLQMNSLKPEDTAVYYCNADTYGYGFDYWGQGTQVTVSS”, “high polyreactivity”; under “QVQLVESGGGLVQAGGSLRLSCAASGRIFQFNVMGWYRQAPGKERELVAAISRGGGITDYADSVKGRFTISRDNAKNTVYLQMNSLKPEDTAVYYCAAVLPARGYYWGQGTQVTVSS”, “high polyreactivity”. In the case of “QVQLVESGGGLDQAGGSLRLICAASGSTFISNVMGWYRPAPGKERELVAAITRSSGRTYYADSVKGRFTISRDNAKNTVYLQMNSLKPEDTAVYYCAARPRGRGVDYWGQGTQVTVSS”, the “polyreactivity (PSR sort gate)” value is listed as “high polyreactivity”. Turning to “QVQLVESGGGLVQAGGRLRLSCDASGITFISNTMGWSRQAPGKERELVAAISWTGGSTYYADSVKGRFTISRDNAKNTVYLQMNSQKPEDTAVYYCNAVRYYVYSTQYDYWGEGTQVTVSS”, the “polyreactivity (PSR sort gate)” value is “high polyreactivity”. As for “QVQLVESGGGLVQAGGSLRLSCAASGSTFVINAMGWYRQAPGKERELVAAISYDGGGTYYADSVKGRFTISRDNAKNTVYLQMNSLKPEDTAGYYCAAENFYPYTYYASDYWGQGTHVTVSS”, the entry is “high polyreactivity”.

The values are drawn from the nanobody polyreactivity screen of Harvey et al. (2022).
